Source: article PMC10952133, “Phytocystatin 6 is a context‐dependent, tight‐binding inhibitor of Arabidopsis thaliana legumain isoform β” (The Plant Journal, 2023)
Like-named read-outs stand apart in the source and are kept apart here. Blank lines part the entries; values can stand above or below the molecule they belong to.

Columns and labels:
[1] = target: T1, Papain from Carica papaya (Carica papaya, UniProt P00784 134-345); experiment: enzyme inhibition kinetics (Ki, Morrison equation); turnover of 50 μM Z-Phe-Arg-AMC by 50 nM papain, 25°C, 20 mM MES pH 6.0 (legend of Figure 3: pH 6.5), 50 mM NaCl, 0.02% Tween 20, 2 mM DTT; inhibitor in 1:2 serial dilutions from 15-fold the enzyme concentration, quadruplicates
T1 construct: papain of Carica papaya, used as a model of the papain-like cysteine proteases; source: bought: Merck
T1 sequence (looked up): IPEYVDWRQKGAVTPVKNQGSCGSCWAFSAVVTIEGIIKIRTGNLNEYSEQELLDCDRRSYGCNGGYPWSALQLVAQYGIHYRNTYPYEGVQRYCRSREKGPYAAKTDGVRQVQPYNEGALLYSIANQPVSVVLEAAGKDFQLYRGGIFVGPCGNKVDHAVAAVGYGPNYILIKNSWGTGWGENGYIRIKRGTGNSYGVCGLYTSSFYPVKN

[2] = target: Arabidopsis thaliana legumain isoform γ, activated (AtLEGγ) (Arabidopsis thaliana) (UniProt Q39119); experiment: enzyme inhibition kinetics (Ki, Morrison equation); turnover of 50 μM Z-Ala-Ala-Asn-AMC by 50 nM legumain, 25°C, 20 mM citric acid pH 5.5, 100 mM NaCl, 0.02% Tween 20, 2 mM DTT; inhibitor in 1:2 serial dilutions from 15-fold the enzyme concentration, quadruplicates
Arabidopsis thaliana legumain isoform γ, activated (AtLEGγ) (Arabidopsis thaliana), sequence (Q39119 30-494): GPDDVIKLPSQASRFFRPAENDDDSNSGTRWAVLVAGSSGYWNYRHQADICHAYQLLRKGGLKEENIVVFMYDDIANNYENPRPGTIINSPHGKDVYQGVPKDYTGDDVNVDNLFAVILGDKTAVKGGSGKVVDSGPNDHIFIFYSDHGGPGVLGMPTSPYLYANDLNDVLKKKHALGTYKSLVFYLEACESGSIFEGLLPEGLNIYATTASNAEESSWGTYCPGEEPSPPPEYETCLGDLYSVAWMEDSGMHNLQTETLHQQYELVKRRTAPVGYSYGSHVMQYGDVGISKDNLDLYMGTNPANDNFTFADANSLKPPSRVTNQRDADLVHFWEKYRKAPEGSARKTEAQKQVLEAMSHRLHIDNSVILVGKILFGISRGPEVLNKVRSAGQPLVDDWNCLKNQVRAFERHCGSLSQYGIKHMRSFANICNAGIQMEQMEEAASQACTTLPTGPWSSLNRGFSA

[3] = target: Arabidopsis thaliana legumain isoform β, activated (AtLEGβ) (Arabidopsis thaliana) (UniProt Q39044); experiment: as above
Arabidopsis thaliana legumain isoform β, activated (AtLEGβ) (Arabidopsis thaliana), sequence (Q39044 22-486): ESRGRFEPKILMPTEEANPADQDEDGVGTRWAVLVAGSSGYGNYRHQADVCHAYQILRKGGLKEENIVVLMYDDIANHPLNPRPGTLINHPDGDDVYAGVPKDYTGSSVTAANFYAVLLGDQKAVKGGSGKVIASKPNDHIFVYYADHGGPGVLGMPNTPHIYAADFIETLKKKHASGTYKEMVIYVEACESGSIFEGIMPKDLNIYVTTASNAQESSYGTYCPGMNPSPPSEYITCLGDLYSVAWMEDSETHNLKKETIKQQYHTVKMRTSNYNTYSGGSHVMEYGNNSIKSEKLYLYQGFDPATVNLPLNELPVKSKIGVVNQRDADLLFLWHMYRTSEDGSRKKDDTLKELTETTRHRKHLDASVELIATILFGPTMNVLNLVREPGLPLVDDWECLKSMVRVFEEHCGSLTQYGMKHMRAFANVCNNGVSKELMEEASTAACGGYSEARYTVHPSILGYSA

[4] = target: human legumain, activated (hLEG) (human) (UniProt Q99538); experiment: as above
human legumain, activated (hLEG) (human), sequence (Q99538 18-323): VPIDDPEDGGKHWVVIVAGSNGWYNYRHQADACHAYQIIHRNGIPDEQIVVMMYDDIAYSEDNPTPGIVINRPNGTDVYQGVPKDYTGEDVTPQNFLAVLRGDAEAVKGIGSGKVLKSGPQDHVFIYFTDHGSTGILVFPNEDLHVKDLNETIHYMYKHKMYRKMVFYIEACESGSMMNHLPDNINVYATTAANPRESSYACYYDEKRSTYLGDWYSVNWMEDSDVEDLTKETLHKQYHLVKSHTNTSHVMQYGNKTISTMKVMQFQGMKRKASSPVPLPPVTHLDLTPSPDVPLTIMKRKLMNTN

[5] = target: Arabidopsis thaliana legumain isoform β, activated (AtLEGβ) (Arabidopsis thaliana) (UniProt Q39044)

Molecule: full-length AtCYT6 lacking the N-terminal signal peptide (AtCYT6-FL, A35-D235) (natural protein)
Ki [1]: 27.8 nM
Ki [2]: 1.21 nM
Ki [3]: 0.29 nM
Ki [4]: 106 nM
inflection temperature T i of AtLEGβ by nanoDSF at pH 6.5, equimolar AtCYT6-FL (AtLEGβ alone 49.6°C) [5]: 58.9 °C

Molecule: C-terminal domain of AtCYT6 (AtCYT6-CTD, E142-D235) (domain or fragment)
Ki [2]: 0.86 nM
Ki [3]: 0.61 nM
Ki [4]: 61.4 nM
inflection temperature T i of AtLEGβ by nanoDSF at pH 6.5, equimolar AtCYT6-CTD (AtLEGβ alone 49.6°C) [5]: 57 °C

Molecule: AtCYT6-CTD-K208A (domain or fragment)
Ki [3]: 3.98 nM

Molecule: C-terminal domain of AtCYT6 carrying the interdomain linker (AtCYT6-CTDlong, A128-D235) (domain or fragment)
Ki [3]: 0.68 nM

More lines, now with the values ahead:

Ki [3]: 3.36 nM
Molecule: AtCYT6-CTD-R205A (domain or fragment)

Ki ([1]; both partners purified): 6.3 ± 1.43 nM
B1: N-terminal domain of AtCYT6 (AtCYT6-NTD, A35-D127) (domain or fragment, Arabidopsis thaliana, UniProt Q8H0X6-1 35-127, looked up)
chain: ALVGGVGDVPANQNSGEVESLARFAVDEHNKKENALLEFARVVKAKEQVVAGTLHHLTLEILEAGQKKLYEAKVWVKPWLNFKELQEFKPASD
notes: Arabidopsis thaliana cystatin 6, N-terminal cystatin domain, residues A35-D127; Cloned into pET-28; source: E. coli BL21(DE3), purified (Ni-NTA, SEC)
